± gives the uncertainty stated by the source.
Experiment: amyloid nucleation score (Sup35N fusion, yeast selection) (log enrichment); library NNK2; higher = more nucleation; inactive = no reads after selection
Procedure, shortened: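 Peptides of 20 random codons, each fused to Sup35N, were expressed in psi-negative yeast. Cells were induced with 100 μM copper sulfate for 24 hours and grown 7 days at 30°C on medium lacking adenine and uracil, and plasmid inserts before and after selection were Illumina-sequenced. Nucleation scores are DiMSum log enrichments of output over input reads, centred on the mode score of non-aggregating sequences, and sequences under 100 input reads were excluded.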

Substance | amyloid nucleation score
SARAICMAVLESSESDHNGV | -0.299 ± 0.36
SASDTRGCCQHIPVSLGILT | 0.119 ± 0.74
SATFWLFVGVENVADMSKVG | 0.261 ± 0.4
SATRDYHRLWCVVRLLLNAA | 0.342 ± 0.46
SAVHENVIGVFFGVLVYSNA | 2.42 ± 0.1
SCAGSWNNKGGSKLQWDFLV | -1.82 ± 0.75
SCCRGEF | -0.235 ± 0.61
SCCYVLKRDFKLMNNVPSGR | -0.033 ± 0.2
SCDIRRSLVSRAQICVCIVM | 7.534 ± 0.071
SCFLSMYVISV | inactive
SCFRC | 9.804 ± 0.047
SCGRMMTVVMIWGNWRSWSS | -0.439 ± 0.76
SCLEMYSHRVPWSFACDDYN | inactive
SCLTNGY | -0.154 ± 0.38
SCPGLGNRIPDTVKYT | 0.969 ± 0.22
SCPMTSYGE | 0.319 ± 0.8
SCRVRFNRSCAPGNSQIGMS | 8.674 ± 0.058
SCSMLVRDDIIIEPDCLLGV | 0.45 ± 0.74
SCVLRP | 0.064 ± 0.33
SCYFLFGHDG | -0.517 ± 0.49
SCYIDRTRYWDGYFLLCSMD | 0.949 ± 0.74
SCYNFVWYTCGLYMWLNCLL | -0.793 ± 0.32
SDGEKFG | -0.256 ± 1.1
SDHFKWV | -1.05 ± 1
SDLLFVLASLSCLQWNKDIA | -0.457 ± 0.25
SDLTIVVSMLGFIPCSCHAF | 6.328 ± 0.05

Substance | amyloid nucleation score
SDRFMIVVDWVILVVLCMT | -0.611 ± 0.39
SDRMLCEGNYCWCVSENVLL | 6.12 ± 0.061
SDSFKDPTWREDNRGW | 2.54 ± 0.085
SDSKG | 0.113 ± 1.1
SDTVYLIFFSLAYNYVKRVT | -1.74 ± 0.41
SDWFW | -0.664 ± 0.5
SELKMWYTDMVSTSKLDCIL | -0.125 ± 0.46
SELLRTLGALSFYMYSFIKH | -1.98 ± 0.54
SERRGIIGSGLRDGRVLFTT | inactive
SESGR | 1.74 ± 0.21
SESMFLVKDSLTWTDVFLIG | -1.07 ± 1.1
SFCDLWLLAQDHAKLLGFIA | -0.499 ± 0.55
SFDFHNGGDIEYLV | inactive
SFDSVELARGTASCRVAYFV | 0.731 ± 0.35
SFGENLVYCMRSIVTSPYRL | -0.364 ± 0.24
SFGGARVSLLCCFPSTSIAS | 9.374 ± 0.036
SFGTFSCLYSVYNI | 2.84 ± 0.086
SFILD | inactive
SFITCRFNRDCFLLQFSWYN | inactive
SFIWSLMSLIEFPVLYKSVV | 0.067 ± 0.32
SFKICKLMNSNRFFVGICCT | 0.057 ± 1.1
SFKYCMMISGGF | 4.503 ± 0.041
SFLLRWSRFVYICYSICCMI | -1.02 ± 0.55
SFLVISWRADRFAA | 5.124 ± 0.042
SFLWLSMFVESAQVVNLQLY | 5.485 ± 0.038
SFPAGICPLMRLVYVNMGVG | -0.683 ± 1.1

Substance | amyloid nucleation score
SFPDSSRSKWIS | -0.775 ± 0.45
SFPYNHFYMDYMPVRAPLVV | -0.153 ± 1.1
SFRFGEKDCWLDCCRVMRKK | 5.59 ± 0.068
SFRQIATLYEKMFNDNGNGI | -0.528 ± 0.37
SFRRSPELSQEFTRGYDSYR | -0.276 ± 0.76
SFRTAHSAPEVGMLEVYMNL | 0.334 ± 0.5
SFVMYRNSGRVCGMRVASEW | 0.766 ± 0.22
SFYVIRVGSLPFRS | 3.25 ± 0.075
SGCASSSDTFDRSLCCEYTL | 0.295 ± 1
SGDHDGHEMRILRWSMLRYG | 1.56 ± 0.11
SGERRTGCPEAAS | 0.075 ± 0.34
SGFCQGGNSSRYMSII | 1.9 ± 0.27
SGFGGLEGFIRPSYSLLAGW | -0.424 ± 0.48
SGFNGFSLNHFQNQFKTPRS | -0.356 ± 1.1
SGFVIWRRQHFEFQEVRSS | -0.515 ± 1.1
SGGLSR | -0.728 ± 0.79
SGIMRIE | inactive
SGIRDTLVSWGPRGMG | -0.309 ± 0.45
SGNGTVRSEYTRYCCLKGEM | 0.822 ± 0.3
SGQKFN | 0.015 ± 0.76
SGQYKENYGGFHHMLVRWRC | -0.042 ± 0.27
SGSALLIEFRYSTSFREKRI | 5.687 ± 0.046
SGSHVYFKSCTGLKLPIVLG | 4.498 ± 0.04
SGSLSINDNSCYGENTNTVL | -1.21 ± 1.1
SGTDHNRMYF | 0.312 ± 0.57
SHFCN | 0.859 ± 0.43

Substance | amyloid nucleation score
SHGFFMAVEGLNCVRFVIIL | inactive
SHHHSQTRKIDPSTDFSQSS | -0.047 ± 1.1
SHIDMFAQECYLCFANVHRR | 2.78 ± 0.21
SHLALTY | 0.14 ± 0.25
SHLCHLGGSRRTQRVVEVSS | 5.72 ± 0.064
SHMSHYRNSSTDFAA | -0.745 ± 0.42
SHRMTSNNTNSNLLGRKTGS | -0.139 ± 0.19
SHTDYHRFAWMF | -1.74 ± 0.53
SHTSCGMKVSLRICHSMGQR | 6.434 ± 0.057
SHWCIVYKGLRNVIVC | inactive
SHWEMRQVGSVVVGIKGKGN | 0.972 ± 0.67
SICYFCLFLNIIDSDSIFAV | 5.87 ± 0.059
SIFNFKATFGNSSRDVMSDD | 3.28 ± 0.057
SIGFPSMSMRSWILFTSLYR | 0.004 ± 0.8
SIGPQRHLPYLLVFVYWTLS | 0.309 ± 0.8
SIGWRPPCLVFDVGWRREGQ | -0.109 ± 0.42
SIIGVYLCFLSFRTNVLWKT | -0.122 ± 0.27
SILGSSRTCILSSWWNVGTL | -0.091 ± 0.8
SIMGRIKIAIHVLRS | 4.12 ± 0.091
SIRIKRLSNLQSRNPVRPRV | -0.578 ± 1.1
SIRRCPVKFINKRLVVYLKV | -0.88 ± 0.55
SISLEIHTAGTGKSRLPFYS | 5.67 ± 0.073
SISRISPTQGIIGQTRFFYV | -1.14 ± 0.76
SISSGMVDVAGQLSCTRVSE | 1.65 ± 0.32
SITYTNLMNTLQAIRTSFLA | -0.708 ± 1.1
SIVNFWNMIVE | 3.32 ± 0.15

Substance | amyloid nucleation score
SIWYSNYNNSRKIPSAYKKW | 2.34 ± 0.071
SKFLM | -1.14 ± 0.48
SKFWVARRCFASHLK | -0.272 ± 1.1
SKGGCTEFIEKTWNLCSCLV | -1.1 ± 0.78
SKKTIVFGGTIRTTALPGPG | -0.592 ± 0.76
SKLRFAIIFAKHVS | -0.322 ± 0.41
SKLTRSIENLLF | 0.949 ± 0.15
SKMCCDMYISISCIIWSARR | 0.352 ± 0.32
SKMWTIRYFSLVRCLHGLLN | -0.985 ± 0.45
SKMYMPAVWMDGPSPQTTMW | 0.73 ± 0.37
SKSEIHCYLMMGRHLFG | 4.5 ± 0.11
SKVLKRACYGAAGPFRIVHV | 3.29 ± 0.082
SKVLNGFYIWYHQVPQLYPL | -1.19 ± 1
SLCLLIALSRWSIAS | 1.14 ± 0.3
SLDGISHHSTDVNLVLNCYR | 5.222 ± 0.045
SLDNWFTDSRAGVGLVFS | -0.277 ± 1
SLEDCYCDRVI | -0.528 ± 0.34
SLESSLAYVGSLGIAGGSAQ | 1.11 ± 0.23
SLFAVQTVVEVVVHV | 0.762 ± 0.41
SLFCVPSSRKVLFLGRTVVV | 0.123 ± 1
SLFLDDKEWMKGITKFLMDP | 0.419 ± 0.51
SLFTTINARNATAEQCSMQT | 0.502 ± 0.21

— the supplement of paper PMC12042874
